From paper PMC3834312

Legend:
Assay in all cases: MODified Histone Peptide Array
[1] = target: H4 R19me2s (histone peptide array spots containing the mark); conditions: whole cell lysate from HEK293 cells transiently transfected; ECL plus western blot detecting reagent; read off a plot
[2] = target: H4 K8ac (histone peptide array spots containing the mark); conditions: whole cell lysate from HEK293 cells transiently transfected; ECL plus western blot detecting reagent; parent: est. 10; read off a plot
[3] = target: H4 R3me2a (histone peptide array spots containing the mark); conditions: whole cell lysate from HEK293 cells transiently transfected; ECL plus western blot detecting reagent; parent: est. 5.9; read off a plot
[4] = target: H4 R3me2s (histone peptide array spots containing the mark); conditions: whole cell lysate from HEK293 cells transiently transfected; ECL plus western blot detecting reagent; parent: est. 5.9; read off a plot
[5] = target: H2A K9ac (histone peptide array spots containing the mark); conditions: whole cell lysate from HEK293 cells transiently transfected; ECL plus western blot detecting reagent; read off a plot
[6] = target: H4 R24me2a (histone peptide array spots containing the mark); conditions: whole cell lysate from HEK293 cells transiently transfected; ECL plus western blot detecting reagent; read off a plot
[7] = target: H2A K13ac (histone peptide array spots containing the mark); conditions: whole cell lysate from HEK293 cells transiently transfected; ECL plus western blot detecting reagent; read off a plot
[8] = target: H4 K12ac (histone peptide array spots containing the mark); conditions: whole cell lysate from HEK293 cells transiently transfected; ECL plus western blot detecting reagent; parent: est. 8.1; read off a plot
[9] = target: H4 K5ac (histone peptide array spots containing the mark); conditions: whole cell lysate from HEK293 cells transiently transfected; ECL plus western blot detecting reagent; parent: est. 9.4; read off a plot
[10] = target: H4 S1P (histone peptide array spots containing the mark); conditions: whole cell lysate from HEK293 cells transiently transfected; ECL plus western blot detecting reagent; parent: est. 5.3; read off a plot

other: Specificity Factor [1]: 3.4
other: Specificity Factor [2]: 13
other: Specificity Factor [3]: 6.7
other: Specificity Factor [4]: 5.5
other: Specificity Factor [5]: 4.4
other: Specificity Factor [6]: 3.9
other: Specificity Factor [7]: 4.5
other: Specificity Factor [8]: 6.1
other: Specificity Factor [9]: 11
other: Specificity Factor [10]: 3.4
Substance: BRD4-SF-FLAG (BRD4 short isoform with a single FLAG epitope tag at the C-terminus) (from UniProt O60885-2) Y433A
